Source: patent publication US20100209956A1

Experiments:
Test in all cases: cell-based or functional assay
[1] = molecular target: Met receptor on A549 lung carcinoma cells (UniProt P08581)
[2] = molecular target: pro-HGF (single-chain hepatocyte growth factor) (UniProt P14210)
[3] = molecular target: soluble form of hepsin encompassing the entire extracellular domain (Arg45-Leu417) and a C-terminal His8 tag (human) (UniProt P05981)
Chain of soluble form of hepsin encompassing the entire extracellular domain (Arg45-Leu417) and a C-terminal His8 tag (human) (P05981 45-162 limits assumed, chain 1 of 2): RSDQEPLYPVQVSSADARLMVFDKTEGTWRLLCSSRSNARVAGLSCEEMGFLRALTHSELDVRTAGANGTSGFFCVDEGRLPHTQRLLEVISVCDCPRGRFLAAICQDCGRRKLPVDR
Chain of soluble form of hepsin encompassing the entire extracellular domain (Arg45-Leu417) and a C-terminal His8 tag (human) (P05981 other isoform, or with tags, fused parts or gaps limits assumed, chain 2 of 2): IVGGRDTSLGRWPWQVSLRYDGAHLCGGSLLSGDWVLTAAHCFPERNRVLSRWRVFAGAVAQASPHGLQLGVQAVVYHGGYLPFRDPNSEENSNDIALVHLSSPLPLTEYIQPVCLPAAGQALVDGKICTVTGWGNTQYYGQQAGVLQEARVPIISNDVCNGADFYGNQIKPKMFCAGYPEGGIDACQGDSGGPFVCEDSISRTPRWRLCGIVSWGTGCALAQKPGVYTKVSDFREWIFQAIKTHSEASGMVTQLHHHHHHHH

Chain of Met receptor on A549 lung carcinoma cells (P08581 25-1390 limits assumed): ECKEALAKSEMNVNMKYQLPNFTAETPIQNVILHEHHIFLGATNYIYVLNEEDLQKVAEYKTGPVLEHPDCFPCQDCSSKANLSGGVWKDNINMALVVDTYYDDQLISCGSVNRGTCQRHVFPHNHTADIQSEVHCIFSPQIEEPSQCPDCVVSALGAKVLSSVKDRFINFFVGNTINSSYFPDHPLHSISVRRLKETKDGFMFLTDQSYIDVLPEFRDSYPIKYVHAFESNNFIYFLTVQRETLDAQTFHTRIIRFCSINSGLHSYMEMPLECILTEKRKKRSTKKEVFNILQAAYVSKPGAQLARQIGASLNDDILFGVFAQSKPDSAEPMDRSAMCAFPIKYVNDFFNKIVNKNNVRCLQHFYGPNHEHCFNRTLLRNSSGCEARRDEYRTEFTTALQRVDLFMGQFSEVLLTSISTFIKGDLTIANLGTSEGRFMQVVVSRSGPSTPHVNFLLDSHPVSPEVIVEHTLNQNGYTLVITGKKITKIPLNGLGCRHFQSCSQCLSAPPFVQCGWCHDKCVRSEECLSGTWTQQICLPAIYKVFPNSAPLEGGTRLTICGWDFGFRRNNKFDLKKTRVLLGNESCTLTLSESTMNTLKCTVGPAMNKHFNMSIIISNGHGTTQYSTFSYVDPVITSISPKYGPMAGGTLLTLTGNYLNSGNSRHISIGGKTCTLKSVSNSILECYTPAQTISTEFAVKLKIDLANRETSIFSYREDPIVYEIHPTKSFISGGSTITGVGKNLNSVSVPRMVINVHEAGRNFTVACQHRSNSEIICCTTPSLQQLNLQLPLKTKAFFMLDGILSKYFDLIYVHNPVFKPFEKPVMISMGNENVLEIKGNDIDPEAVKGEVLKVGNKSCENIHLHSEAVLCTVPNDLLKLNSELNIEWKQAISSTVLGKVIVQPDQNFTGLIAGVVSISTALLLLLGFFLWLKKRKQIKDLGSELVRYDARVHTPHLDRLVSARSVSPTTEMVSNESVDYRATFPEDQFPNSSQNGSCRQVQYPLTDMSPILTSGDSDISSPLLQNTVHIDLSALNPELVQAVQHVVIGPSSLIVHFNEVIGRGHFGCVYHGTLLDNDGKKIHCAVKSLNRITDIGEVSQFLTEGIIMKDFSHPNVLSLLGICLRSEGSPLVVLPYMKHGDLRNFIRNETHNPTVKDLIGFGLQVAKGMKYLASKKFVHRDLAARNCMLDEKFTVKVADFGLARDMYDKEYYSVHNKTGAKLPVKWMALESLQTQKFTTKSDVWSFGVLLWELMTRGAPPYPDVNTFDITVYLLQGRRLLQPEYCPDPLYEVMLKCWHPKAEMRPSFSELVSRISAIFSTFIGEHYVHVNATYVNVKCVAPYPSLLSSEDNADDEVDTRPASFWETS
Chain of pro-HGF (single-chain hepatocyte growth factor) (P14210 32-728 limits assumed): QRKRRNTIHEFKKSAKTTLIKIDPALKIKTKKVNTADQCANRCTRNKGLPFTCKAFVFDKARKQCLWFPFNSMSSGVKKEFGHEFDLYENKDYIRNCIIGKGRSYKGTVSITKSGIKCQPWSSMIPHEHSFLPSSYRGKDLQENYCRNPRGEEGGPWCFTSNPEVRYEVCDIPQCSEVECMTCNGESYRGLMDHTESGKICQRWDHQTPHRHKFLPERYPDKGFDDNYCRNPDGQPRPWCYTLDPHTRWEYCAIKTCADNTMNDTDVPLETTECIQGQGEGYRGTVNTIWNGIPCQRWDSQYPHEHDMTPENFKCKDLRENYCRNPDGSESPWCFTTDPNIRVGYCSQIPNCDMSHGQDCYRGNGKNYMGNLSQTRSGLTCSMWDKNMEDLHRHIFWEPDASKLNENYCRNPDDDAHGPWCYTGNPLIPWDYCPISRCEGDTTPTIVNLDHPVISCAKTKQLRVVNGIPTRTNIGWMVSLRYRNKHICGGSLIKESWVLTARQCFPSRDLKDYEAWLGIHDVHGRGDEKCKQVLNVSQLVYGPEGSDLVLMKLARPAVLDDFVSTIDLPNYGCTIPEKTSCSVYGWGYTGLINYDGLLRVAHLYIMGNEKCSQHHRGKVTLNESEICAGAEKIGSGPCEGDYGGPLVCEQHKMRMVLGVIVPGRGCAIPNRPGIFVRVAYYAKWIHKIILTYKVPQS

| Substance | Met phosphorylation in a kinase receptor assay (KIRA) with A549 cells: concentration of maximal activity [1] [ng/mL] | percent of unlabelled pro-HGF (0.3 mg/ml) converted into HGF by 40 nM enzyme [2] [%] | other results |
| --- | --- | --- | --- |
| HGFHGFA (HGF produced by activation of pro-HGF with HGFA) (from UniProt P14210 32-728; P14210 32-728) (ligand) | 250 | – | – |
| soluble form of hepsin encompassing the entire extracellular domain (Arg45-Leu417) and a C-terminal His8 tag (from UniProt P05981 45-162; P05981 163-417) (enzyme) | – | > 95 | – |
| HGFA (hepatocyte growth factor activator) comprising residues Val373-Arg407 (from UniProt Q04756 373-407) (enzyme) | – | > 95 | – |
| HGFhepsin (HGF produced by activation of pro-HGF with hepsin) (from UniProt P14210 32-728; P14210 32-728) (ligand) | 250 | – | – |
| soluble form of HAI-1B (sHAI-1B) comprising the entire extracellular domain (from UniProt O43278 36-465) | – | – | IC50, inhibition of hepsin enzymatic activity towards S2366 (amidolytic assay) [3]: 21.1 nM |
